These results are taken from publication PMC9481602 (2022).

As usually defined, the Kd is the constant that tells how readily two partners part at equilibrium. Low values mean higher affinity, high ones lower affinity.

One experiment deals with nonmodified ubiquitin (UniProt P0CG48 1-76). Kind of experiment: NMR.
In experiment [1] the target is ubiquitin acetylated at K48 (UniProt P0CG48 1-76, acetyllysine (AcK) at position 48). Kind of experiment: NMR.

Regarding RFQQQLEQLNAMGFLNREANLQALIATGGDINAAIERLLGS (domain or fragment) [UBA domain of human Ubiquilin-2], the results for the Kd (in the experiment with nonmodified ubiquitin; in experiment [1]) were 0.5 µM and 1.3 µM, respectively.
